Reference: patent US20070212355A1 (priority 2005, published 2007)

Tests used:
[1] = SEC-SLS self-association of peptides in PBS (pH 7.5); assay type: physicochemical; details: 1 mg/ml
Description: The self-association poses a challenge to the development and manufacturing of a homogeneous therapeutic.
(§1) Solution molecular weight of the peptides was measured by SEC-SLS. Briefly, peptide solutions in PBS (pH 7.5) at 0.4 to 2.0 mg/mL were fractionated over a Superdex peptide column (Amersham Pharmacia). The eluted peaks were monitored by static light scattering at 690 nm and solution molecular weight was determined at UV 280 nm using the Astra software package (Wyatt Inc.).

[2] = Helical propensity analysis using TFE (CD at 222 nm); assay type: physicochemical; details: 0.2 mg/mL in PBS (pH 7.5), MRE at 222 nm
Description: In addition, trifluoroethanol (TFE) is known to induce helix formation in peptides (Soennichsen et al., Biochemistry 31: 8791 (1992)). Accordingly, helical propensity analysis using TFE was performed. Briefly, tested peptides were diluted to 0.2 mg/mL in PBS (pH 7.5) containing 0, 1, 5, 15, 33 or 50% TFE. CD spectra were collected and CD plots were generated after data averaging, buffer subtraction and curve smoothing. Helical propensity values were obtained from mean residue ellipticity (MRE) at 222 nm versus % TFE plots. The concentration of TFE that effected a 50% transformation of the CD spectrum at 222 nm was used as a measure of helical propensity.

CD1 mice = assay: Mucosal wet weight of small intestine after 10 daily subcutaneous injections; assay type: in vivo; details: 2.5 mg/kg (13.3 nmole) daily s.c. 10 days; p<0.0001
Text: Afterwards, the mice were euthanized and the small intestines were removed, flushed with saline, and processed as described below.
Specifically, 4 cm sections were harvested: (1) immediately distal to the pylorus (duodenum), (2) starting 2 cm distal of the ligament of Treitz (jejunum), and (3) immediately proximal to the cecum (ileum). The remaining small intestine from ˜6 cm distal of the ligament of Treitz to 4 cm proximal to the cecum was used to prepare mucosal scrapings. From the proximal and distal ends of the remnant, an equal distance was removed until a 15 cm section remained, the remnant was cut longitudinally, rinsed, and the mucosal layer was removed using the short end of a glass microscope slide. The wet weight of the intact intestinal segments and mucosa was measured.

mice = assay: Upper gastrointestinal transit, carmine dye technique, normal mice; assay type: in vivo; details: 50 μg/mouse daily s.c. 10 days, 20-minute test period, vs PBS vehicle, FIG. 3
Description: To test the effects of A2G-GLP-2 on upper gastrointestinal transit in normal mice, mice were randomly assigned to 2 groups (14 animals per test group). Each group received daily subcutaneous injection (total volume […]) of either A2G-GLP-2 peptide (50 μg/mouse) or the phosphate-buffered saline vehicle for 10 consecutive days.
On the day of study, upper gastrointestinal transit was measured using the carmine dye technique. Mice were fed a test meal of 0.25 ml of a 6% (w/v) solution of carmine cochineal powder mixed into 0.5% (w/v) methylcellulose administered intragastrically by an 18 gauge curved feeding tube. Following oral test meal administration, mice were replaced into their home cages. Twenty minutes after marker meal administration, mice were rapidly euthanized by cervical dislocation and the entire gastrointestinal tract was excised starting from the distal colon and working towards the gastric pylorus. […] The linear distance traversed by the carmine dye front through the small intestine was measured together with the total length of the small bowel. Upper gastrointestinal transit was expressed as the percentage of the entire small intestine traversed by the carmine dye front during the 20-minute test period: % small intestine traveled =[distance traversed by dye front through small intestine (cm)/entire small intestine length (cm)×100].

[3] = CD spectra secondary structure of peptides; assay type: physicochemical; details: 0.2 mg/mL in PBS, 25° C.
Description: The secondary structures of tested peptides were determined using 0.2 mg/mL peptide solutions in PBS. Briefly, CD spectra were collected in triplicate at 1 nm intervals at 25° C. in 0.1 cm path length cell. Secondary structures were determined by fitting of the CD spectra using CD spectra software (CD Spectra Deconvolution software 2.1). All tested peptides contained peaks corresponding to the presence of alpha helices.

[4] = background statement; cited from earlier work
[5] = Incubation with U937 cell lysate, SDS-PAGE (proteolysis resistance); assay type: in vitro ADME; details: 0, 12, 24 hours; in comparison with A2G GLP-2 mimetibody (SEQ ID NO: 5); FIG. 1
Description: The purified Pro substitution variants were incubated with U937 cell lysate in the presence of CompleteMini protease inhibitor tablets (Cat. No. 1 836 153, Roche Applied Science, Indianapolis, Ind.) for 0, 12, or 24 hours. Afterwards, GLP-2 mimetibody variants were purified using Protein A beads and resolved on a SDS-PAGE gel.

mutated human GLP-2R [6] = biological target: T1, mutated human GLP-2R (Homo sapiens, UniProt O95838, E512D/G511A/L513V); assay: cAMP expression assay in HEK 293E clonal cell line expressing mutated human GLP-2R; assay type: cell-based; details: Table 2; mimetibodies with Pro substitution; read-out: EC50
T1 construct: expressed in transfected cells; host or cells: HEK 293E clonal cell line
T1 sequence (O95838 1-553 G511A/E512D/L513V): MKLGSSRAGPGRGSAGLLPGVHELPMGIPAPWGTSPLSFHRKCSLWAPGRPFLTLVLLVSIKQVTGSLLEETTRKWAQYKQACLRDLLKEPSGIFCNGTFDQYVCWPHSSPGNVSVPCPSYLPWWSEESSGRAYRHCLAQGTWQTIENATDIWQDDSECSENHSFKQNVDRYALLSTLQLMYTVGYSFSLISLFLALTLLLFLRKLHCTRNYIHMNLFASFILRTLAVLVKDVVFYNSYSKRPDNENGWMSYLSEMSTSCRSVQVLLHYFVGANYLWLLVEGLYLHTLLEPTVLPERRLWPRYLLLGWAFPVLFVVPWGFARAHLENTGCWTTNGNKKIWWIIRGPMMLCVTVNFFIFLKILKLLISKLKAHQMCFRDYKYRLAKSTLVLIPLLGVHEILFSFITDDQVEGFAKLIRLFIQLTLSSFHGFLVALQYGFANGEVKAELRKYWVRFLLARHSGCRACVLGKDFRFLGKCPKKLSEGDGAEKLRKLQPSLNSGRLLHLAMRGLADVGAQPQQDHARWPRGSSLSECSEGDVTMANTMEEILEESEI
Text: To achieve this goal, a clonal cell line expressing a mutated human GLP-2R was generated by transfecting HEK 293E cells. The mutated human GLP-2R differs from the wild-type human GLP-2R (SEQ ID NO: 35) at three amino acid positions within the C-terminal intracellular region (SEQ ID NO: 36).
The cAMP expression was quantitated using the cAMP Direct Screen System (Cat. No. CSD 200, Applied Biosystems, Bedford, Mass.).
This assay was based on the cAMP Direct Screen System from Applied Biosystems utilizing a cell line expressing mutated huGLP-2R in HEK 293E cells. Peptide at concentrations ranging from 0.01 nM to 1.0 uM in PBS with 0.5% BSA was added to ˜50,000 cells suspended in 96-well plates. After a 30-minute incubation at 37° C., Lysis Buffer followed by luminescence reagents (Applied Biosystems) was added according to the manufacturers' procedures (Applied Biosystems Luminescence protocol: cAMP-Screen Direct System). Luminescence was quantitated using a TopCount liquid scintillation analyzer (PerkinElmer), and data was processed using Softmax software (Molecular Devices Corporation).

mutated human GLP-2R [7] = biological target: T2, mutated human GLP-2R (human, UniProt O95838 1-553); assay: cell-based or functional assay
T2 chain: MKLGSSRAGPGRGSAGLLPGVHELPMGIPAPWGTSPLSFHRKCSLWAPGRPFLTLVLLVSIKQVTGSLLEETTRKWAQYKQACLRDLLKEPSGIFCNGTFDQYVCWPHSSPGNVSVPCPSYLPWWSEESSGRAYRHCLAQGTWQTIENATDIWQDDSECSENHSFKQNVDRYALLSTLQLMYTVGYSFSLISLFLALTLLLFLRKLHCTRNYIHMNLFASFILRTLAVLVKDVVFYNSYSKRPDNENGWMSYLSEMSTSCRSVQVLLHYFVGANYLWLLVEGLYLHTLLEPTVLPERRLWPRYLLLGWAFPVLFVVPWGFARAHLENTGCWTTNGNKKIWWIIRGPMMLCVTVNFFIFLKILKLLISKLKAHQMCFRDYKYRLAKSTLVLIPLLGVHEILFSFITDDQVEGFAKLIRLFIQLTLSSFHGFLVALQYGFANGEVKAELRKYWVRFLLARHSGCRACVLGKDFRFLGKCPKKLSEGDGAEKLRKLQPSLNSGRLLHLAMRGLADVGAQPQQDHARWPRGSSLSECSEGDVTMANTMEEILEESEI

mutated human GLP-2R [8] = biological target: T2, mutated human GLP-2R; assay: cell-based or functional assay
[9] = biological target: the molecule itself; assay: SEC-SLS, self-association in PBS pH 7.5
[10] = biological target: the molecule itself; assay: SEC-SLS, self-association at 1 mg/ml in PBS pH 7.5
Description: as §1

[11] = SEC-SLS analysis of mimetibodies (monomer/dimer); assay type: physicochemical; details: purified from HEK 293E/HEK 293 expression

For `CC[C@H](C)[C@H](NC(=O)[C@H](Cc1ccccc1)NC(=O)[C@H](CC(=O)O)NC(=O)[C@H](CCCNC(=N)N)NC(=O)[C@H](C)NC(=O)[C@H](C)NC(=O)[C@H](CC(C)C)NC(=O)[C@H](CC(N)=O)NC(=O)[C@H](CC(=O)O)NC(=O)[C@H](CC(C)C)NC(=O)[C@@H](NC(=O)[C@@H](NC(=O)[C@H](CC(N)=O)NC(=O)[C@H](CCSC)NC(=O)[C@H](CCC(=O)O)NC(=O)[C@H](CC(=O)O)NC(=O)[C@H](CO)NC(=O)[C@H](Cc1ccccc1)NC(=O)[C@H](CO)NC(=O)CNC(=O)[C@H](CC(=O)O)NC(=O)CNC(=O)[C@@H](N)Cc1c[nH]cn1)[C@@H](C)O)[C@@H](C)CC)C(=O)N[C@@H](CC(N)=O)C(=O)N[C@@H](Cc1c[nH]c2ccccc12)C(=O)N[C@@H](CC(C)C)C(=O)N[C@H](C(=O)N[C@@H](CCC(N)=O)C(=O)N[C@H](C(=O)N[C@@H](CCCCN)C(=O)N[C@H](C(=O)N[C@H](C(=O)N[C@@H](CC(=O)O)C(=O)O)[C@@H](C)O)[C@@H](C)CC)[C@@H](C)O)[C@@H](C)CC` [SEQ ID NO: 3], the “SEC-SLS elution / self-association state” value [1] was “overlapping dimer and monomer peaks”, the “TFE required for helical transformation (helical propensity)” value [2] was ~16 % TFE and the “increase in mucosal wet weight” value (CD1 mice) was “statistically significant increase”. The “upper gastrointestinal transit (% small intestine traveled by carmine dye front)” value (mice; listed as A2G-GLP-2) was “acceleration of upper gastrointestinal transit”, the “upper gastrointestinal transit (% small intestine traveled by carmine dye front)” value (mice; listed as A2G-GLP-2 peptide) was “significant acceleration of intestinal transit” and the “Helix (percentage of helical structure)” value [3] was 20.7%. For the same molecule, the “Random coil (percentage)” value [3] was 37.1%.

For `CC[C@H](C)[C@H](NC(=O)[C@H](Cc1ccccc1)NC(=O)[C@H](CC(=O)O)NC(=O)[C@H](CCCNC(=N)N)NC(=O)[C@H](C)NC(=O)[C@H](C)NC(=O)[C@H](CC(C)C)NC(=O)[C@H](CC(N)=O)NC(=O)[C@H](CC(=O)O)NC(=O)[C@H](CC(C)C)NC(=O)[C@@H](NC(=O)[C@@H](NC(=O)[C@H](CC(N)=O)NC(=O)[C@H](CCSC)NC(=O)[C@H](CCC(=O)O)NC(=O)[C@H](CC(=O)O)NC(=O)[C@H](CO)NC(=O)[C@H](Cc1ccccc1)NC(=O)[C@H](CO)NC(=O)CNC(=O)[C@H](CC(=O)O)NC(=O)CNC(=O)[C@@H](N)Cc1c[nH]cn1)[C@@H](C)O)[C@@H](C)CC)C(=O)N[C@@H](CC(N)=O)C(=O)N[C@@H](Cc1c[nH]c2ccccc12)C(=O)N[C@@H](CC(C)C)C(=O)N[C@H](C(=O)N[C@@H](CCC(N)=O)C(=O)N[C@H](C(=O)N[C@@H](CCCCN)C(=O)N[C@H](C(=O)N[C@H](C(=O)N[C@@H](CC(=O)O)C(=O)O)[C@@H](C)O)[C@@H](C)CC)[C@@H](C)O)[C@@H](C)CC` [teduglutide], the half-life [4] is listed as “less than 30 minutes”.

For “SEQ ID NO: 43: GLP-2 mimetibody Pro substitution variant; core HGDGSFSDEMNTILDNLAARDFINWLIQTKITDGSGGGSGALVAVPSESKYGPPCPPCP (Mimetibody)”, the “degradation after incubation with U937 cell lysate” value [5] was “less degradation” and the EC50 (mutated human GLP-2R [6]) was 4.8 nM.

For “SEQ ID NO: 44: GLP-2 mimetibody Pro substitution variant; core HGDGSFSDEMNTILDNLAARDFINWLIQTKITDGSGGGSGALVAVSPESKYGPPCPPCP (Mimetibody)”, the “degradation after incubation with U937 cell lysate” value [5] was “less degradation” and the EC50 (mutated human GLP-2R [6]) was 7.7 nM.

B1: GLP-2(A2G, N16G, L17Q) (peptide)
peptide: HGDGSFSDEMNTILDGQAARDFINWLIQTKITD
notes: Synthetic analog of human GLP-2, >95% purity; also called GLP-2(A2G,N16G, L17Q) peptide
In the case of B1, the “activity in cAMP expression assay, fold less than wild type GLP-2” value (mutated human GLP-2R [7]) is reported as 2 fold, the “cAMP in Vitro EC50 values” (mutated human GLP-2R [8]) is reported as 3.5 nM and the binding result [9] is reported as “no binding (tested: 1 mg/ml)”.

B2: GLP-2(A2G, L17Q) (peptide)
peptide: HGDGSFSDEMNTILDNQAARDFINWLIQTKITD
notes: Synthetic analog of human GLP-2, >95% purity; also called GLP-2(A2G, L17Q) peptide
In the case of B2, the “activity in cAMP expression assay, fold less than wild type GLP-2” value (mutated human GLP-2R [7]) is reported as 3 fold, the “cAMP in Vitro EC50 values” (mutated human GLP-2R [8]) is reported as 5.2 nM and the binding result [9] is reported as “no binding (tested: 1 mg/ml)”.

B3: A2G GLP-2 peptide (peptide)
peptide: HGDGSFSDEMNTILDNLAARDFINWLIQTKITD
notes: Analog of human GLP-2 with Ala2 changed to Gly; also called A2G peptide; GLP-2(A2G)
B3: binds [10].

B4: SEQ ID NO: 4: A2S GLP-2 mimetibody, IgG4 Hg-CH2-CH3 with S228P and P234A/L235A (protein)
chain: HSDGSFSDEMNTILDNLAARDFINWLIQTKITDGSGGGSGTLVTVSSESKYGPPCPPCPAPEAAGGPSVFLFPPKPDTLMISRTPEVTCVVVDVSQEDPEVQFNWYVDGVEVHNAKTKPREEQFNSTYRVVSVLTVLHQDWLNGKEYKCKVSNKGLPSSIEKTISKAKGQPREPQVYTLPPSQEEMTKNQVSLTCLVKGFYPSDIAVEWESNGQPENNYKTTPPVLDSDGSFFLYSRLTVDKSRWQEGNVFSCSVMHEALHNHYTQKSLSLSLGK
modifications: Mimetibody
In the case of B4, the “SEC-SLS association state of mimetibody” value [11] is reported as “dimer”.
